# What was measured:
# [1] = biological target: T1, Type I collagen (Rattus norvegicus, UniProt P02454;P02466 P02454:152-1207,P02466:86-1125); experiment: maximum binding at 23.16% mass fraction ssDNA; SYBR Safe depletion assay, deionized water, RT; details: tags: rat tail tendon, Corning; chain copies: 2,1
# [2] = biological target: T1, Type I collagen; experiment: maximum binding at 29.32% mass fraction ssDNA; SYBR Safe depletion assay, deionized water, RT; details: tags: rat tail tendon, Corning; chain copies: 2,1
# [3] = biological target: T1, Type I collagen; experiment: binding capacity identical to HAP aptamer; fibers form above about 5 pmol ssDNA/ug collagen; details: tags: rat tail tendon, Corning; chain copies: 2,1
# Description: (§1) Complexes spontaneously formed upon mixing and were incubated at room temperature overnight followed by storage in solution at 4° C. until needed.
# (§2) The amount of ssDNA in the DNA aptamer-collagen complex self-assembled fibers for different volume fractions of type I collagen and ssDNA oligomer was assessed fluorometrically by measuring the intensity of a fluorescent DNA stain. Solutions of different volume fractions were diluted at a 1:2 volume ratio of fiber solution to SYBR Safe DNA stain (Invitrogen). The stain concentrate was diluted first at a 1:10,000 volume ratio in deionized water. Then the mixtures were incubated protected from light for 30 minutes at room-temperature. After incubation, the mixtures were centrifuged at 2000 g for five minutes. Supernatant was plated in duplicate into black walled 96 well microplates and fluorescence intensity was measured by exciting at 488 nm and detecting at 520 nm using a UV-Vis Synergy H1 plate reader (BioTek). ssDNA in the supernatant was quantified using a standard curve fit with a 4-parameter logistic regression to correlate fluorescent intensity to ssDNA concentration. Individual standard curves were prepared for each ssDNA to account for any differences in DNA stain interaction with the two ssDNA sequences due to their secondary structure.
# [4] = biological target: T1, Type I collagen; experiment: fiber formation, same as VEGF-R2 aptamer; details: tags: rat tail tendon, Corning; chain copies: 2,1
# Excerpt: (§3) A VEGF-R2 targeting aptamer sequence was used in both a monovalent (single sequence) and divalent form (two single sequences tethered by a (PEG)6 linker). For all studies, we used a random sequence ssDNA of the same length and GC content as a control to determine the effect of the targeting and functionality of the DNA aptamer as compared to the effect of purely ssDNA, respectively.32 The VEGF-R2 targeting aptamer monovalent sequence is: ‘5-GATGTGAGTGTGTGACGAGCTACGACGTCTGGTGTAATTTATAAAGACACTGTGTATATCAACAACAGAACAAGGAAAGG-3’ (SEQ ID NO:14) .The random ssDNA oligomer monovalent sequence is: ‘5-TAATGAGAAGTATGTGTAGAGTCAATGAGATACGCAATTGGGAAGACAAGAGTATTGACTCGGACTGAGTACAATCGTCC-3’ (SEQ ID NO:15). […]
# (§4) Fiber morphology for the different volume fractions of type I collagen and DNA aptamer was qualitatively assessed by phase and fluorescence microscopy using immobilized fibers. For fluorescence microscopy, immobilized fibers were stained with SYBR Safe DNA stain (Invitrogen) diluted at a 1:10,000 volume ratio in deionized water. […] To quantify surface coverage, full well images were taken with a Keyence BZ-X700 fluorescence microscope.
# [5] = biological target: T1, Type I collagen; experiment: binding capacity identical to random ssDNA; fibers form above about 5 pmol ssDNA/ug collagen; details: tags: rat tail tendon, Corning; chain copies: 2,1
# Description: as §1, §2
# [6] = biological target: T1, Type I collagen; experiment: fiber formation by microscopy, deionized water; details: tags: rat tail tendon, Corning; chain copies: 2,1
# [7] = biological target: T1, Type I collagen; experiment: maximum binding at 17.83% mass fraction ssDNA; SYBR Safe depletion assay, deionized water, RT; details: tags: rat tail tendon, Corning; chain copies: 2,1
# [8] = biological target: T1, Type I collagen; experiment: maximum binding at 12.27% mass fraction ssDNA; SYBR Safe depletion assay, deionized water, RT; details: tags: rat tail tendon, Corning; chain copies: 2,1
# [9] = biological target: T1, Type I collagen; experiment: fiber formation, same as random sequence; none above 50% vol collagen; details: tags: rat tail tendon, Corning; chain copies: 2,1
# Excerpt: as §3, §4
# [10] = biological target: T1, Type I collagen; experiment: percent DNA bound rises with collagen; SYBR Safe depletion after centrifugation; fibers at 10-30% vol collagen; details: tags: rat tail tendon, Corning; chain copies: 2,1; hairpins predicted
# Description: In 96 well plate, mixtures of scrambled aptamer (1 μM) were mixed with rat tail type I collagen (0.3 mg/mL). Mixtures were at 25% increments from 0% to 100% volume fraction collagen with 1 replicate. Solutions were incubated at room temperature for 2 hours and then SYBR Safe DNA stain was added in a 2:1 ratio to the aptamer-collagen solutions and incubated for 30 minutes in the dark at room temperature. The solutions were centrifuged at 2000 g for 5 minutes and the supernatant was added to a 96 well plate giving 2 repeats per solution. Fluorescent intensity was measured by exciting at 488 nm and reading emission at 520 nm.
# T1 sequence (P02454 152-1207, chain 1 of 2): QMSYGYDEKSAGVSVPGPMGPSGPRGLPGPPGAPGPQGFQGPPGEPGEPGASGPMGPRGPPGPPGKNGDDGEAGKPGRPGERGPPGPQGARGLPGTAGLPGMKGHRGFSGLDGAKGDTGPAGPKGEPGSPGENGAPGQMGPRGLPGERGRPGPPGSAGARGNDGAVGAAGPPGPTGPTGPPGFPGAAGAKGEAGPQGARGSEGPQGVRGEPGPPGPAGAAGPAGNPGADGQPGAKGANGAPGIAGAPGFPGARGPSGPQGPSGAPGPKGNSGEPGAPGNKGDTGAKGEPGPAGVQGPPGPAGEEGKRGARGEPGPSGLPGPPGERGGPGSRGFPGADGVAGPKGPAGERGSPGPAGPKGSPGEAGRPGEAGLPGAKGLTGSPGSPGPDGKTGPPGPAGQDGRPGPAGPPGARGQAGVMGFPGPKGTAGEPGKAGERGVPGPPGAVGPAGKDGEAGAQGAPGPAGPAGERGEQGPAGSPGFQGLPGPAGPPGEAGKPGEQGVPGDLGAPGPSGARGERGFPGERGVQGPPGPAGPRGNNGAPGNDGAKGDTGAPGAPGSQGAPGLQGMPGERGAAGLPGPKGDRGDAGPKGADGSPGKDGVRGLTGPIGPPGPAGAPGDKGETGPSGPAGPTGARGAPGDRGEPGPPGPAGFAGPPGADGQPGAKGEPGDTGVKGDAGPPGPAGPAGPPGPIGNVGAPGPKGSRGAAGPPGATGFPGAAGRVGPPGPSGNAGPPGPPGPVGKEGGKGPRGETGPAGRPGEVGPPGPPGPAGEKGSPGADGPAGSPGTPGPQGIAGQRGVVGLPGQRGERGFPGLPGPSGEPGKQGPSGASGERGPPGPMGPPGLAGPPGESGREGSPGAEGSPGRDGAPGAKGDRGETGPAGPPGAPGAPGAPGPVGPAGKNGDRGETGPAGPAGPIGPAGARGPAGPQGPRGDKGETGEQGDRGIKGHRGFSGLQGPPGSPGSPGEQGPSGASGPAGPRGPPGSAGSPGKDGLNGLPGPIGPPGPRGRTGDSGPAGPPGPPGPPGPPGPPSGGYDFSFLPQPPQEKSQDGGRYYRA
# T1 sequence (P02466 86-1125, chain 2 of 2): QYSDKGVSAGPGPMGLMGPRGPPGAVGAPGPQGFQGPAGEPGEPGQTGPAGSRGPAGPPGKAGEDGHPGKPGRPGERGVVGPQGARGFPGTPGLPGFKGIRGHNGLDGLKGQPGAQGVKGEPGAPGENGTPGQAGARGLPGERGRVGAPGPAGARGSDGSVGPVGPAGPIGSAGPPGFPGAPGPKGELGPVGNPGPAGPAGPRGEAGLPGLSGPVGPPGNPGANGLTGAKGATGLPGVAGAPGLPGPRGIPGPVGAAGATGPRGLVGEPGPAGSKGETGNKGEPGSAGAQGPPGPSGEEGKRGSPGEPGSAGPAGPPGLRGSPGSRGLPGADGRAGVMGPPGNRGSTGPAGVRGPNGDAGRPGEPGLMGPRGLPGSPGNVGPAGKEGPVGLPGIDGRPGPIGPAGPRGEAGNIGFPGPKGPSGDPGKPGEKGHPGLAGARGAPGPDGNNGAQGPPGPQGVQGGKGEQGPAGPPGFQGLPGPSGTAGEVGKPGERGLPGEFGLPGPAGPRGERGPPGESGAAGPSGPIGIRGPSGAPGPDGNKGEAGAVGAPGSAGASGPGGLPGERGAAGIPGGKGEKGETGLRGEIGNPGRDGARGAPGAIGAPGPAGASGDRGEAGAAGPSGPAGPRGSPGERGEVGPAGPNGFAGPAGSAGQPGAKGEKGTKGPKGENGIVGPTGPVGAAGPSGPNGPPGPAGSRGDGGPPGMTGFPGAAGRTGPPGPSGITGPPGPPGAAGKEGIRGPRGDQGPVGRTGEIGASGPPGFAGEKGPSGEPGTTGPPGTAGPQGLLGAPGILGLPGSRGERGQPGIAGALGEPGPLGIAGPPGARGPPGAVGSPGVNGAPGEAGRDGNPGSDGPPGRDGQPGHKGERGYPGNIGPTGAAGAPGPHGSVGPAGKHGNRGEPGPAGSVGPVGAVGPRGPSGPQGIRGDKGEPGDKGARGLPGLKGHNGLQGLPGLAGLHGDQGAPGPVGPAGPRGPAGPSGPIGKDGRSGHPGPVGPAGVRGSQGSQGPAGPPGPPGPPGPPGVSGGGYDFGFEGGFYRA
binder,measurement,setting,value
CAGAGAATCTCCATTTTAGCACTTACCTGTGAC (ssDNA) [random 33 nt ssDNA],binding result,[1],binds
TCCCGCGAAATTAATACGACAGCACCACTTTTGGAGGGAGATTTC (ssDNA) [random 45 nt ssDNA],binding result,[2],binds
TAAAACGCGCTTAAGCTGGTGTTACTCGAGCGGTCTTCTA (ssDNA) [random ssDNA 40 nt (Sequence R)],binding result,[3],binds
random ssDNA oligomer monovalent 80 nt (ssDNA) DNA: TAATGAGAAGTATGTGTAGAGTCAATGAGATACGCAATTGGGAAGACAAGAGTATTGACTCGGACTGAGTACAATCGTCC,binding result,[4],binds
CAGGTGGGCGCGCTGTCGTGGGTGCTCGGGTGCGGTTGGG (ssDNA) [HAP aptamer (Aptamer G)],binding result,[5],binds
CAGGTGGGGGCGCTGTCGTGGGGGCTCGGGGGCGGTGGGG (ssDNA) [Aptamer G+],binding result,[6],binds
CAGGTGCGCGCGCTGTCGTGCGTGCTCGCGTGCGGTTGCG (ssDNA) [Aptamer G-],binding result,[6],binds
random 90 nt ssDNA (ssDNA) DNA: AATTTAGGAGCTGAAGGTCAGGGCACCAGCAGCCTTTGGAAGCCTACAGGACAACAGTCAGCCTGGCTAGAAAAAAAAACAATGTCACAG,binding result,[7],binds
GGAGCTGTTGGCGTA (ssDNA) [random 15 nt ssDNA],binding result,[8],binds
VEGF-R2 aptamer monovalent (ssDNA) DNA: GATGTGAGTGTGTGACGAGCTACGACGTCTGGTGTAATTTATAAAGACACTGTGTATATCAACAACAGAACAAGGAAAGG,binding result,[9],binds
"scrambled 80 nt aptamer (ssDNA, 5' amino C6 (5AmMC6)) DNA: TAAAACGCGCTTAAGCTGGTGTTACTCGAGCGGTCTTCTATTGAAATAATTTCTGAAGGCACACGACATATGATCTTCAG",binding result,[10],binds
